# According to the DeepSol protein solubility set:
# Assay: soluble on expression in E. coli; label from the status in PepcDB or PDB records
row,Sequence,soluble on expression in E. coli
1,GMQPETSAQYQHRFSQAIRGGEAADGLPQDRLNVYIRLIRNNIHSFIDRCYTETRQYFDSKEWSRLKEGFVRDARAQTPYFQEIPGEFLQYCQSLPLSDGILALMDFEYTQLLAEVAQIPDIPDIHYSNDSKYTPSPAAFIRQYRYDVTHDLQEAETALLIWRNAEDDVMYQTLDGFDMMLLEIMGSSALSFDTLAQTLVEFMPKADNWKNILLGKWSGWIEQRIIIPSLSAISENMEGNSPSQNHLSA,soluble
2,GMQTPALIIVTGHPATGKTTLSQALATGLRLPLLSKDAFKEVMFDGLGWSDREWSRRVGATAIMMLYHTAATILQSGQSLIMESNFRVDLDTERMQNLHTIAPFTPIQIRCVASGDVLVERILSRIAQGARHPGHCDDRSPADLELVRSRGDIPPLPLGGPLLTVDTTFPEQIDMNAIVQWVRQHLQSGTAFL,soluble
3,GMSEDHPLDRPVWNSLGGPQSELDVASGNLRRLDPAYGPFAAAAPGAEAGLASLLQGDADEIWLVEPEPVAPPPGTRVIRVAPLLQMIADGPVPSFDDPGIVALGETDVPEMTALALATEPGPWASGTWRYGQFYGVRIDGRLAAMAGERMRPAPNLAEVSGVCTWPEYRGRGLAARLIRKVIAGMAARGEVPYLHSYASNASAIRLYESLGFRARRAMTATLLGKST,soluble
4,GMSLIPEIDAFLGCPTPDAWIEAALADQETLLIDHKNCEFKAASTALSLIAKYNTHLDLINMMSRLAREELVHHEQVLRLMKRRGVPLRPVSAGRYASGLRRLVRAHEPVKLVDTLVVGAFIEARSCERFAALVPHLDEELGRFYHGLLKSEARHYQGYLKLAHNYGDEADIARCVELVRAAEMELIQSPDQELRFHSGIPQALAA,soluble
5,GMSNQKHIDKIQAVIKDVKFAMISTSNKKGDIHAWPMTTSEVNLDNKEIWFIGDKTSDVVKDIQDDARIGLTYATQDEKNYVSISGDAELPTDKAKLDELWSPVYSAFFANGKEDANIQLIKVVPHGVECWLSG,soluble
6,GMSPTVLPATQADFPKIVDVLVEAFANDPTFLRWIPQPDPGSAKLRALFELQIEKQYAVAGNIDVARDSEGEIVGVALWDRPDGNHSAKDQAAMLPRLVSIFGIKAAQVAWTDLSSARFHPKFPHWYLYTVATSSSARGTGVGSALLNHGIARAGDEAIYLEATSTRAAQLYNRLGFVPLGYIPSDDDGTPELAMWKPPAMPTV,soluble
7,GMSWEKSGKEGSLLRWYDVMEAERYEYTVGPAGEQFFNGLKQNKIIGSKCSKCGRIFVPARSYCEHCFVKIENYVEINKDEAYVDSYTIIYNDDEGNKLAQPVYIALIRFPNIEGGLLCYAEGNVKVGAKAKILSFQWPLRVKVD,soluble
8,GMVEVSQFKDAMAQLASAVHIVTTSGETGQHGFTASAVCSVTDSPPTLLVCINSNARAYEHFVKNRVLMVNTLTAEQSSLSNIFASPLSQEERFSNASWTTLTTGSPMLQDALINFDCEITEIKHVGTHDILICKIVDIHQSNAKNALVYRNRVYHSV,soluble
9,GMYQTIEGFLQSWTYETESTQKMLDVLTDESLSQEIAPGHWTLGRVAWHIVTAIPVILSGTGLKFEGETKDYPVPTSAKTIADGYRKVNTAFVEALQSEWTDKDLTTINDFFGRPMPNSIFLMTLINHQNHHRGQMTVLMRQAGLTVPGVYGPAKEEWATAGMEAPKM,soluble
10,GPEAERAEMLAWFDRINAERRRAGMVAVLTRRCNLACPYCFEGGQAPEGDMSEETADLLAAMIEREYLAKGWRVDMDFYGGEPLLRPDLIRRIAEPLRAAGGGLFHGNMVSNGSLLNRAVMTDLTALGIESVKVTLDGPPQVHDRYRPYGGGAGSFHDILRGMGEVVDLVKIHVGGNFTRETWREYPALLDLLLAEGFTPDRLGTVRFTP,not soluble
11,GPGHAGIFTFEEPVTHVSESIGIMEVKVLRTSGARGNVIVPYKTIEGTARGGGEDFEDTCGELEFQNDEIVKTISVKVIDDEEYEKNKTFFLEIGEPRLVEMSEKKALLLNELGGFTITGKYLYGQPVFRKVHAREHPIPSTVITIAEEYDDKQPLTSKEEEERRIAEMGRPILGEHTKLEVIIEESYEFKS,soluble
12,GPGSGDPYWAYSGAYGPEHWVTSSVSCGGSHQSPIDILDHHARVGDEYQELQLDGFDNESSNKTWMKNTGKTVAILLKDDYFVSGAGLPGRFKAEKVEFHWGHSNGSAGSEHSVNGRRFPVEMQIFFYNPDDFDSFQTAISENRIIGAMAIFFQVSPRDNSALDPIIHGLKGVVHHEKETFLDPFILRDLLPASLGSYYRYTGSLTTPPCSEIVEWIVFRRPVPISYHQLEAFYSIFTTEQQDHVKSVEYLRNNFRPQQALNDRVVSKS,soluble
13,GPGSMAAVPPQKAANIAQRLQPQCATVGPATLRMSAGKSLKIRENAMYSNMPPPTAFTTPCSATNAGPVMEVCVPFIVMTPIAMPRGTETEKIIVITTSSMTLMEASTSREPSAIPSNSWWNDNATSSVLMSLSLAIPTERPKNTLCEAKPNSIKIAAATRLALFR,not soluble
14,GPGSMADFPKLARIKLDDENMEKIHCAARKGQTEEVKRLVEQGIDPAIPNRFGCTALHLACKHGQIETAKYLSSICDVHGAWHGQRPLHLAVLSNKEVLVEALVEGARERGRNVEIMLNECDDVSVDDIGEHQKHTDGQTALHWCVALGDNYLPMLRLLIRLGASPTAKNKENVTSMMYAMEFKNEAAMEEMVKGVKPQQLRLDYQDKEGRTHLHYAILHNRQDYAMRFIEMGHDPQMEDDNHETPLFLALRAAMPDLLTYLLQNVDSFSVQQAPFHNGSVMVAERIQWLEFATDEQARTECIRLFQKRLDEVSFRPEETEKKRAKPTVKKMKLAPSAPLRSRSIGNASALRSRSIGGRISGK,soluble
15,GPGSMAELHVIGDLAFGEDFGGKSYFCAFEIVTGEHWRVVEGHTSGCTHIMESDSCGGIAWCFPIDVHYTMGSVEGWPKISMQVWSVDGYGRKDLAGYGVAFVPPPGGEEQEVNVETWKPCFWNPNFFIRLYENLREAVMGGGPVLCDKTMIHTNDERFKLRTISSGSVRLHLNVVARGMERLGVRCA,not soluble
16,GPGSMANGVTANSMRVNVKAPDLGAFPLDHYSECKSQVEAYYRCLKSNEYVTPLCRDQMREYLQCRMDRGLMKPADLDGFGIPKTEFVPTRQHRIDLKQQWLRQKMNQVTVVWEENYRRDDLQVPDGYEREKGGGDGGGGNPKPVGEKVNT,not soluble
17,GPGSMASFDMLREDILDVFNVFDEEGTGSISMQELTRAIYTITGTRISRSDLRSLVQAVQEEMKEEAHARKTPLGVDLPPRANSLETSISPNADGENDAVDSSLFVAVVLKTLNRHTYEQELLFTFHLLEDKNYPGFITKDSLKKAAAEMEEHLTDQEVNEMFDKLVTGISSSAVDFTTFTSVLEAAKRMDD,soluble
18,GPGSMCNDDARQEGVQWPSSQQLAALADIEGDVQMKAAQLGLLSSEYRANIARVLHHYEPQAATFRTIIYASEQKRKAVERELVWTERIALLQEQRCGTTIVSTRDLMVLEREPLHPVECSLKECYQKLENVAYNELCVLRNYEYPPRQAVATMRMIMRVRGEEDLSWENVQVVLSENYFYTFFVSRMRTLLQKRLPDDVLEELEQYCLNPEHAPEALAVVSVPLGVIGSLLHAVRDYFQVMDLVKRPVEPMSVEERRKKAGELRRALQTLKEDAATATEGMADLKARIASKFVTVRDEYDDTMCPLHDDLEKKTEDFLKVLSGDIPAEEGATGEGECPDAM,not soluble
19,GPGSMCSGLTAFLVDFVQVVPGQTQTSFQTAAPEDSDPGVYDPNTRSWSGTDGLRYRVPLFPIPSERHTREKVRHVKILMDNCRHICISDELPATKEEKRFWASYRFIQYQLFLAPACVVTPPVYVFFKMFHDKLPHFLRGRTMPILTGLAVAEMWAEATYPSHQLLSMALRAKTPMGDAARAEWTRLQPIDIPFYIFSSYQFQQLFYAVPEEYLFGGDLASLCG,soluble
20,GPGSMCTAHSQSYLPLPPPTRTSTHTLTANVTQLRCRRRCVTPAIRTSRPPPAVAPPAALPAAHRPCICLLLHDLSPLPLLVLPPSLPLCAAPLHAAAHLPSHRTPSRPPMSAYHSSNPVEARRAECARLQAKYPGHVAVVVEAAEKAGSKVHFLALPRDATVAELEAAVRQALGTSAKKVTLAIEGSTPAVTATVGDIADACKRDDGFLYVSVRTEQAMGGIAGLCFASDSGGI,not soluble
21,GPGSMDPTLKELLHANLEWIFVGGKGGVGKTTTSCALATLFATTPISDAASPGGTRPRRVLLISTDPAHNLSDAFNQRFGPHPTPVKGLEESLAAMEVDPKNFTHGALMSSLTGAKSDGSASSLSAEAEADAAQHTASFARIGAVLKEAARTMPGIDEISVFAEILHYVRTLFYDLLIFDTAPTGHTLRLLALPQTLSSTFDKLMSLEGLAPMIEAASHLIGTNLGALGGACGDTAGSCEQATAAPSLSSAAPGEGSAAAASSQSRWCITADEVRSTALHWRQTMEEVQARFNDPNRTSFVCVCIAEFLSVYETERLVQELMKYNIGCDSIVVNQLVLKPSSEPPCRMCSARQKIQAKYLEQIDLLYEDFHVVKMPLLSDEVRGVPALKKFARFLQEPYSPDTHGYIDVQEPC,not soluble
22,GPGSMDTQGIRAVSEYVARGHGSGIVWAWCAASPAAFASMINSPSRTRQAAHERSVHYLSSYEQKSGCVCTVRVDRMGITLNEFHHTVPLWLVTWHTQLLYRLFGPVGVAVHVTDLDSLVLNSLLSAWEGTPVQVTALTSRHRLSTCVSAHRRSTGRVFSVLAGLQDLVLLPSPSVHGSLVVAEYAPLLRRVTASKCCVEYLKPLSQLQHLQEVQLSQTLIRDAELRILAQLPLLTTLDVSSCPHLSSLEPLACAASLRILRASSCERLMLVAQLGTLATLRIVDLSGNVFRPTEFASFITQPTLHLQAGYFAHMRWPRDDPPSTQVLGSVKHLHLSYGTVPNIRWLCGAHSLEQLCLDHTNVTAVDMAVLVQHTPLLSVLSLSYCEHLHTNLDFTRSLHFLAMLTITRSSLPSPFLELVELQQSLSLTLS,not soluble
23,GPGSMDYNLEYSEEQREYLERVGMREYLETFVAEVVRQKPNDIYAFLHDWASAHCQKQTKMTPTEASIKIQCAQRQNLAIKEMRSRQRKVNELLEQEETERVGKVEMEG,soluble
24,GPGSMFFYQRRLASGLPVRFLSLRAWRSSPENFRKTSAFLKALKAKTPAAGVSAEGFGARPVVVITGGERGIGKEVVHQLLREGVDVILCCPFEAEALRTIARLKARVSNSRVHFVKLDLNDEESVRECAAEVLGMTPRIDVLINNSGLVSPLSHKLNKRGYEVVLSINFLGHVLFTELLLERVKASGPSRIVNVASLMHLDACVEGPCKTALDVMAANCDPTSPHHTRNYSLSKLLLVCYTRDLARHLRGTDTAVATLHPGVVITDIYAFAVIFMRVFFRTVFKFPGEGAEVVLYCALADNIRSGSFYADCAEYNSLLSPLAVDDAHNERLRRVLLRYFALDGSKPTGKSLADVVQSTP,not soluble
